Results as given in US20100098704A1 (CELLDEX THERAPEUTICS, published 2010).

T1: soluble recombinant human DEC-205 fusion protein (DEC-205 extracellular domain comprising all ten … (human))
T1 chain: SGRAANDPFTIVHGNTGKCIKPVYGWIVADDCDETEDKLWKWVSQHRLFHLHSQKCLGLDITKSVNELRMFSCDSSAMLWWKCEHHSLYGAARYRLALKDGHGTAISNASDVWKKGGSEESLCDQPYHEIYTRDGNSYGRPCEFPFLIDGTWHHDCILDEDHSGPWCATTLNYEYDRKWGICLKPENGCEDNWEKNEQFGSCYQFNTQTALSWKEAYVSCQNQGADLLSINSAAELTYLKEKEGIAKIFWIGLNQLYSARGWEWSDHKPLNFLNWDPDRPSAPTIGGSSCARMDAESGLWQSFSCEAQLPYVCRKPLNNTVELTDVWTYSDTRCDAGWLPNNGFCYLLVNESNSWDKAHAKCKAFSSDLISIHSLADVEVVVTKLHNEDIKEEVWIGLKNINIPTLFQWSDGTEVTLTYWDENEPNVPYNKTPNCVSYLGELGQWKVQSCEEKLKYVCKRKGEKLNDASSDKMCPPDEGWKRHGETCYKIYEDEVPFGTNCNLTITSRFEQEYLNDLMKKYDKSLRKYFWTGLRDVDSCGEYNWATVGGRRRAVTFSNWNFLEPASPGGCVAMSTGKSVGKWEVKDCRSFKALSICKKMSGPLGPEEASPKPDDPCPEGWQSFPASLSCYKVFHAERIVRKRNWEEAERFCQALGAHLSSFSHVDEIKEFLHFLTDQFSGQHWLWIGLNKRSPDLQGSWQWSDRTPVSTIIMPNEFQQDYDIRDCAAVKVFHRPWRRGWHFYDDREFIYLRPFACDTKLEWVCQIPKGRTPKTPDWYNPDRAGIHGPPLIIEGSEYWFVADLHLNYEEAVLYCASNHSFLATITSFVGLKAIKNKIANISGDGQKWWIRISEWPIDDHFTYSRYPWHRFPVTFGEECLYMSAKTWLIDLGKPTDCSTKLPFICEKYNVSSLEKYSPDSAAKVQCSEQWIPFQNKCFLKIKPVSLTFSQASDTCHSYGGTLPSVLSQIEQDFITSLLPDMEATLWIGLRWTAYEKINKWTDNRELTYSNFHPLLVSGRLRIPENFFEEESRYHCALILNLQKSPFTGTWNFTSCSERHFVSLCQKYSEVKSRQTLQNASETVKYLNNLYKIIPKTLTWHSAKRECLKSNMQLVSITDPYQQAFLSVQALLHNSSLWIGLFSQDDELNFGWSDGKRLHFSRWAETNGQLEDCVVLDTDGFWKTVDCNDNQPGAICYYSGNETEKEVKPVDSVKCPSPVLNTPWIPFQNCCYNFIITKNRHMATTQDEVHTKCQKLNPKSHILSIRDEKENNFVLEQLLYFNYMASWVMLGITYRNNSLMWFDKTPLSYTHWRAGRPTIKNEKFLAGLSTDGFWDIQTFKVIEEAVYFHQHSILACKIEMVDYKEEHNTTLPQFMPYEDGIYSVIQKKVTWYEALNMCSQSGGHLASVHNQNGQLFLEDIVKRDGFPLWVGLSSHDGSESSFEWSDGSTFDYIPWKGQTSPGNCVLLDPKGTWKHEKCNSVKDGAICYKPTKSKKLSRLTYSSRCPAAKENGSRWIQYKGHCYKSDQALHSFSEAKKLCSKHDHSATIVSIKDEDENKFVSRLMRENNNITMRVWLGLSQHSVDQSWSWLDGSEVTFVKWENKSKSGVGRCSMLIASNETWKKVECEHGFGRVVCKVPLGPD

B1: human anti-DEC-205 monoclonal antibody 3D6-2F4 (antibody, V domains shown)
VH: QVQLVESGGGVVQPGRSLRLSCAASGFIFSIYGMHWVRQAPGKGLEWVAVIWYDGSNKYYADSVKGRFTISRDNSKNTLYLQMNSLRAEDTAVYYCARAPHFDYWGQGTLVTVSS
VL: DIQMTQSPSSLSASVGDRVTITCRASQGISSWLAWYQQKPEKAPKSLIYAASSLQSGVPSRFSGSGSGTDFTLTISSLQPEDFATYYCQQYNSYPYTFGQGTKLEIK
notes: also called mAb #5
B2: human anti-DEC-205 monoclonal antibody 3G9-2D2 (antibody, V domains shown)
VH: QVQLVESGGGVVQPGRSLRLSCAASGFTFSNYGMYWVRQAPGKGLEWVAVIWYDGSNKYYADSVKGRFTISRDNSKNTLYLQMNSLRAEDTAVYYCARDLWGWYFDYWGQGTLVTVSS
VL: EIVLTQSPATLSLSPGERATLSCRASQSVSSYLAWYQQKPGQAPRLLIYDASNRATGIPARFSGSGSGTDFTLTISSLEPEDFAVYYCQQRRNWPLTFGGGTKVEIK
B3: human anti-DEC-205 monoclonal antibody 5A8-1F1 (antibody, V domains shown)
VH: QVQLVESGGGVVQPGRSLRLSCAASGFTFSTYGMHWVRQAPGKGLEWVAIIWYDGGNKYYADSVKGRFTISRDNSKNTLYLQMNSLRAEDTAVYYCARDFYWYFDLWGRGTLVTVSS
VL: EIVLTQSPATLSLSPGERATLSCRASQSVSSYLAWYQQKPGQAPRLLIYDASNRATGIPARFSGSGSGTDFTLTISSLEPEDFAVYYCQQRRTFGQGTKVEIK
B4: human anti-DEC-205 monoclonal antibody 3C7-3A3 (antibody, V domains shown)
VH: QVQLVESGGGVVQPGRSLRLSCAASGFTFSSYNMHWVRQAPGKGLEWVAFIWYDGSNKYYGDSVKGRFTISRDNSKNTLYLQMNSLRAEDTAVYYCAREELGIGWYFDLWGRGTLVTVSS
VL: B3 VL

Key:
[1] = biological target: T1, soluble recombinant human DEC-205 …; assay: SPR (Biacore 2000), DEC-205 fusion protein amine-coupled to CM5 chip, antibody flowed, 1:1 Langmuir fit, mean of two series
[2] = biological target: T2, human Dendritic and Epithelial Cell 205 receptor (DEC-205) expressed on cells (human, UniProt O60449 28-1722); assay: flow cytometry, CHO-S cells expressing human DEC-205 against control CHO-S cells, saturating antibody, PE goat anti-human IgG Fc [A]
[3] = biological target: T2, human Dendritic and Epithelial Cell 205 …; assay: flow cytometry, human monocyte-derived dendritic cells, saturating antibody, PE goat anti-human IgG Fc [C]
[4] = biological target: T2, human Dendritic and Epithelial Cell 205 …; assay: flow cytometry, human monocyte-derived dendritic cells, saturating antibody, PE goat anti-human IgG Fc [D]
[5] = biological target: T2, human Dendritic and Epithelial Cell 205 …; assay: flow cytometry, human monocyte-derived dendritic cells, saturating antibody, PE goat anti-human IgG Fc [F]

Binder	Ka [1] [M⁻¹]	Kd [1] [nM]	koff [1] [s⁻¹]	kon [1] [M⁻¹ s⁻¹]	binding result [2]	binding result [3]	binding result [4]	binding result [5]
B1	1.5e+10	0.08	0.00012	1.8e+06	binds	–	–	–
B2	4.7e+09	0.24	0.00019	900000	–	binds	–	–
B3	2.1e+09	1.5	0.0002	360000	–	–	binds	–
B4	5.2e+08	5.6	0.00076	170000	–	–	–	binds
